Test results published in paper PMC9076029 (Journal of Molecular Biology, 2022).
Read-outs that look alike come from different tables or passages of the source.

How the values were obtained:
Assay in all cases: ITC
[1] = target: T1, SARS-CoV-2 spike protein receptor binding domain, wild-type (SARS-CoV-2, UniProt P0DTC2)
[2] = target: T1, SARS-CoV-2 spike protein receptor …; remark: listed apart in the source
[3] = target: T1, SARS-CoV-2 spike protein receptor …; remark: listed apart in the source
[4] = target: T1, SARS-CoV-2 spike protein receptor …; remark: listed apart in the source

B1: REGN10987 single chain variable fragment (scFv, V domains shown)
VH: QVQLVESGGGVVQPGRSLRLSCAASGFTFSNYAMYWVRQAPGKGLEWVAVISYDGSNKYYADSVKGRFTISRDNSKNTLYLQMNSLRTEDTAVYYCASGSDYGDYLLVYWGQGTLVTVSS
VL: QSALTQPASVSGSPGQSITISCTGTSSDVGGYNYVSWYQQHPGKAPKLMIYDVSKRPSGVSNRFSGSKSGNTASLTISGLQSEDEADYYCNSLTSISTWVFGGGTKLTVL
[1]
  Kd: 34.3 ± 8.1 nM

B2: LY-CoV555 single chain variable fragment (scFv, V domains shown)
VH: QVQLVQSGAEVKKPGSSVKVSCKASGGTFSNYAISWVRQAPGQGLEWMGRIIPILGIANYAQKFQGRVTITADKSTSTAYMELSSLRSEDTAVYYCARGYYEARHYYYYYAMDVWGQGTAVTVSS
VL: not shown
[2]
  Kd: 3.8 ± 1.9 nM
[3]
  Kd: 3.9 ± 1.9 nM

B3: LY-CoV016 single chain variable fragment (scFv, V domains shown)
VH: EVQLVESGGGLVQPGGSLRLSCAASGFTVSSNYMSWVRQAPGKGLEWVSVIYSGGSTFYADSVKGRFTISRDNSMNTLFLQMNSLRAEDTAVYYCARVLPMYGDYLDYWGQGTLVTVSS
VL: not shown
[4]
  Kd: 49.3 ± 10.1 nM
  dH: -11.7 ± 0.1 kcal/mol
